Marks after values point to notes of the source that are not given here.
Experiments:
[1] = Stability (RCP by radio-HPLC) of purified scale-up 64Cu-DOTATATE reactions; assay type: physicochemical; conditions: for RCP: Sep-Pak purified material
Protocol: (§1) HPLC was performed using an Agilent 1200 series system equipped with a variable wavelength UV-Vis detector followed in-line with a sodium iodide detector (Bioscan B-FC-200P). A Phenomenex Luna C18 column (150 mm×.4.6 mm, 5 μm) was used. The mobile phase was made of Solvent A and Solvent B. Solvent A was a 0.1% trifluoroacetic acid (TFA) in HRW, and solvent B was 0.1% TFA acid in acetonitrile (ACN). The gradient was (i) 15-40% Solvent B in A for 10 min, 40% Solvent B in A from 10 to 15 min, 15% Solvent B in A from 15-16 min, and 15% Solvent B in Solvent A from 16-19 min. The flow rate was 1.2 mL/min, and UV detection was monitored at 220 nm.
Radiolabeling reactions followed the general procedure described herein. A solution of ^64Cu in 0.05 M HCl was mixed with a solution of DOTATATE in sodium acetate/gentisic acid buffer. The reaction mixture was heated to 30° C. for 5 min and then purified via a C-18 solid phase extraction cartridge. The purified ^64Cu-DOTATATE was collected in 2 mL of 50% EtOH and subsequently diluted with an ascorbic acid solution. The final product was assayed for activity and the radiochemical purity (RCP) was evaluated via radio-HPLC analysis. Characterization was performed against non-radioactive DOTATATE (tR=6.3 min) and Cu-DOTATATE (tR=7.3 min) standards.
Representative reactions for 100 mCi-7000 mCi batch sizes and results are outlined in Table 9. […] The remainder of the activity eluted (tR=6.2-7.2 min) are attributed to degradation products due to radiolysis.

[2] = Stability of 64Cu-DOTATATE in final dose matrix (NaOAsc, EtOH, GA) by HPLC; assay type: physicochemical
Protocol: as §1
The effect of ethanol (EtOH) and gentisic acid (GA) content in the final dose matrix on chemical stability of ^64Cu-dotatate was assessed. In these experiments, 500 mCi reactions were performed using the general procedure outlined in Example 2 and the ^64Cu-DOTATATE product was eluted from the Sep-Pak with 2 mL of 50% EtOH (aq) into 5 mL of 50 mg/mL NaOAsc buffer to serve as the purified ^64Cu-DOTATATE stock solution. From the ^64Cu-DOTATATE stock, 1 mL aliquots were transferred to vials containing the following solutions:
In those samples, the decrease in ^64Cu-DOTATATE correlated with an increase in free ^64Cu and two unknown radioimpurities at tR=6.6 min and 7.1 min.

[3] = biological target: somatostatin receptors, subtype 2 receptors (SSTR2) (Homo sapiens, UniProt P30874); conditions: cited from earlier work
Sequence of somatostatin receptors, subtype 2 receptors (SSTR2) (P30874 whole entry): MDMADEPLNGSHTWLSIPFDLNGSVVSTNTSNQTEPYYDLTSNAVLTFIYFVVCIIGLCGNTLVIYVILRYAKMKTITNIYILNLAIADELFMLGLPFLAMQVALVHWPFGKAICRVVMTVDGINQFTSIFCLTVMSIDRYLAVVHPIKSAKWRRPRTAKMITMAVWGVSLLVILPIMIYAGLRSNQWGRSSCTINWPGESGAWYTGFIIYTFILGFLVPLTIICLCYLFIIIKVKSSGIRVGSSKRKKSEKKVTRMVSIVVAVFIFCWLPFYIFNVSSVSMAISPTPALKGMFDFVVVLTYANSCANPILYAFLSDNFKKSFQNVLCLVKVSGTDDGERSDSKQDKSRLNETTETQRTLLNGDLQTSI

[4] = reaction 120.6 mCi 64Cu at TOS, 200 μg DOTATATE
[5] = reaction 481 mCi 64Cu at TOS, 1000 μg DOTATATE, average of two samples
[6] = reaction 1190 mCi 64Cu at TOS, 2000 μg DOTATATE, average of two samples
[7] = reaction 2402 mCi 64Cu at TOS, 4000 μg DOTATATE, average of two samples
[8] = reaction 7297 mCi 64Cu at TOS, 4378 μg DOTATATE

Compound: C[C@@H](O)[C@H](NC(=O)[C@@H]1CSSC[C@H](NC(=O)[C@@H](Cc2ccccc2)NC(=O)CN2CCN3CCN(CC(=O)O)CCN(CC2)CC(=O)[O][64Cu][O]C(=O)C3)C(=O)N[C@@H](Cc2ccc(O)cc2)C(=O)N[C@H](Cc2c[nH]c3ccccc23)C(=O)N[C@@H](CCCCN)C(=O)N[C@@H]([C@@H](C)O)C(=O)N1)C(=O)O [^64Cu-DOTATATE, copper (Cu64)-N-[(4,7,10-Tricarboxymethyl-1,4,7,10-tetraazacyclododec-1-yl)acetyl]-Dphenylalanyl-L-cysteinyl-L-tyrosyl-D-tryptophanyl-L-lysyl-L-threoninyl-L-cysteinyl-L-threonine-cyclic (2-7) disulfide]
- period over which stable (HPLC) ([1]; purified reaction solutions): at least 47 h
- RCP Day 1 (+24 hr) [1, 4]: 97.7%^
- RCP Day 2 (+47 hr) [1, 4]: 95.0%^
- RCP [1, 4]: 98.9%^
- RCP [1, 5]: 99.4%^c
- RCP Day 1 (+24 hr) [1, 5]: 99.7%^c
- RCP Day 2 (+47 hr) [1, 5]: 99.4%^c
- RCP [1, 6]: 99.6%^c
- RCP Day 1 (+24 hr) [1, 6]: 99.4%^c
- RCP Day 2 (+47 hr) [1, 6]: 99.7%^c
- RCP [1, 7]: 99.2%^c
- RCP Day 1 (+24 hr) [1, 7]: 99.4%^c
- RCP Day 2 (+47 hr) [1, 7]: 99.3%^c
- RCP Day 2 (+47 hr) [1, 8]: 95%
- RCP [1, 8]: 95%
- purity, chemically stable for two days ([2]; sodium ascorbate 45-122 mg/mL, ethanol 1.6%-5.2%, activity concentration 3.6-16 mCi/mL at time of preparation): greater than 95%
- purity, remained stable ([2]; sodium ascorbate up to 98 mg/mL, ethanol up to 9.7%, activity concentration approximately 18 mCi/mL at time of preparation): greater than 90%
- affinity for somatostatin receptor subtypes [3]: highest affinity for subtype 2 receptors (SSTR2)

From US12102696B2, “Radiolabeling and formulation for scale up of 64Cu-DOTATATE” (Curium US LLC, priority 2020, dated 2024)
